{"source": "patent US8969026B2", "about": "“Polymeric reverse micelles as selective extraction agents and related methods of MALDI-MS analysis” (University of Massachusetts, priority 2007, dated 2015)", "key": {"[1]": {"test": "Inverse micelle (polymer 1) extraction of a myoglobin tryptic digest at pH 7.1, MALDI-MS", "format": "physicochemical", "settings": "myoglobin tryptic digest 1 μM, polymer 1 in toluene, K = Iorg/Iaq, [M+H]+, 3 replicates", "text": "All of the peptides with pI values above 7.1 are extracted effectively, and with only one exception, peptides with pI values below 7.1 are not extracted effectively. Among the peptide fragments tested, the only exception is the peptide N140-G153 (m/z 1553), a peptide fragment that has a pI below 7.1 and still has K>1. […] One of two reasons could explain the observed results: First, because the pH of the solution is so close to the pI of this peptide, a significant fraction of the peptide is positively-charged at pH 7.1 and therefore extracted. Alternatively, the theoretically calculated pI value may be low.\n(§1) A typical biphasic extraction procedure involves mixing 200 μL of a toluene solution of homopolymer 1 or 2 (1×10^−4 M) with 1 mL of an aqueous solution of peptide(s) that was buffered to pH ˜7.0 with 50 mM Tris/TrisHCl. The mixture is vortexed for 10 to 120 minutes and centrifuged at 12000 rpm for 30-40 minutes to break the resulting emulsion and separate the organic and aqueous layers. The top (organic) layer is then recovered and dried to obtain a solid residue. The residue is redissolved into 10 μL of THF and sonicated for 10 seconds to promote solubilization. Finally, 20 μL of an α-CHCA matrix solution (0.16 Min 60:40:0.3% THF:H2O:TFA) are added to the sample for a final volume of 30 μL. For MALDI-MS analysis the samples are applied to the target using the dried-droplet method, where 1 μL of the sample/matrix mixture is spotted on a stainless-steel target, and the solvent is evaporated at room temperature. The residual aqueous phase (˜1 mL) after extraction is also examined by MALDI-MS. Equal amounts (5 μL) of the aqueous phase and the matrix solution (0.16 M α-CHCA in 60:40:0.3% THF:H2O:TFA) are mixed, and 1 μL of the resulting solution is spotted, using the dried droplet method, on a stainless-steel target for MALDI-MS analysis.\nExtraction of the myoglobin digest was done in a manner similar to described above. 1 mL aliquots of a 1×10^−6 M protein digest were buffered at pH 7.1 with 50 mM TRIS, mixed with 200 μL of a toluene solution of homopolymer 1 (1×10^−4 M), extracted, and analyzed by MALDI-MS as detailed above.\nProteolytic digestion. For the myoglobin tryptic digests, 110 μl of protein solution (˜3×10^−4 M in 50 mM TRIS buffer) were mixed with 40 μL of MeOH. The mixture was heated at 60° C. for 10 minutes to denature the protein. 150 μL of a trypsin solution, which contained 2 μg/450 μL of protein, 50 mM TRIS buffer, and 1 mM CaCl2, was added to the denatured protein sample, and the mixture was left to digest at 37° C. for 24 hours. The digestion was stopped by filtering the solution through a 10K MWCO Centricon filter. The filtrates were diluted to the desired concentration and used for extraction and analysis."}, "[2]": {"settings": "fluorescent pI markers, cited from earlier work; for Pka: second pKa column"}, "[3]": {"test": "pH-dependent biphasic extraction of a peptide mixture with inverse micelles of polymer 1 in toluene, MALDI-MS ion abundance ratio", "format": "physicochemical", "settings": "polymer 1 inverse micelles in toluene, K = Iorg/Iaq, [M+H]+ signal, [M+K]+ for spinorphin and β-amyloid, at least 4 replicates; for Ion abundance ratio (K ± sM) pH 4.0: aqueous pH 4.0; for Ion abundance ratio (K ± sM) pH 7.1: aqueous pH 7.1; for Ion abundance ratio (K ± sM) pH 9.0: aqueous pH 9.0", "text": "The net charge within the inverse micelle of 1 is negative, affording a selective extraction of positively-charged peptides. In a typical experiment, a toluene solution containing 1 was mixed with an aqueous solution containing a mixture of peptides. After vortexing this mixture, the organic layer was separated and analyzed using MALDI-MS. […] Because the aqueous solution was buffered at a pH of 7.1, peptides with pI values above 7.1 were expected to be sequestered into the interior of the inverse micelles, while peptides with pI values below 7.1 would be mostly excluded based on Coulombic repulsion.\nThe ion abundance ratio is related to the extraction capacity of the polymer, and can be defined as the ratio of the MALDI ion abundance of the peptide in the organic phase that contains the inverse micelles (Iorg) to the ion abundance of the peptide remaining in the aqueous phase (Iaq) (K=Iorg/Iaq). These experiments were performed with the hypothesis that the extraction would be based on electrostatic interaction between the polymer and the peptide. To test this premise further, two control experiments were carried out. […] Therefore, a two-phase extraction experiment was done in the absence of homopolymer 1, and no peptide extraction into the organic phase was observed. Second, peptide extractions using a polymer without the negatively-charged functionality were performed. Polymer 2 contains charge-neutral pentaethyleneglycol functionalities instead of the carboxylic acid moieties. […] These two results are consistent with the hypothesis that the extraction is based on electrostatics.\nWithout limitation to any one theory or mode of operation, the pH of the overall aqueous solution is also likely to dictate the pH of the hydrated interiors of the inverse micelle where the binding takes place. Accordingly, extractions at three different pHs: 4.0, 7.1, and 9.0 were carried out; the results of these experiments are listed in Table 1. […] The results from experiments at pH 7.1 and 9.0 further support this idea. It should be noted that when the experiment is carried out at pH 9.0, the peptide with a pI of 7.7 is extracted to some extent. Such a result could be attributed to errors associated with aqueous solution pH measuring or to errors in the peptide pI calculation. Nonetheless, the tunability is still significant and therefore is a very useful result.\nA Bruker Reflex III time-of-flight mass spectrometer was used to perform MALDI-MS analysis. The mass spectrometer is equipped with a 337-nm nitrogen laser, a 1.0 m flight tube, and a stainless steel sample target. All mass spectra were acquired in reflectron mode using a voltage of 16 kV. All reported spectra represent an average of 70 shots acquired at 30% laser power. The accelerating voltage was set to 20 kV.\nas §1, with “Equal amounts (5 μL) of the aqueous phase and the matrix solution (0.16 M α-CHCA in 60:40:0.3% THF:H2O:TFA) are mixed, and 1 μL of the resulting solution is spotted, using the dried droplet method, on a stainless-steel target for MALDI-MS analysis.” left out"}}, "data": [{"molecule": "ASEDLKKHGTVVLTALGGILK (listed as Equus caballus) [tryptic fragment of equine myoglobin]", "values": [{"measurement": "Ion abundance ratio (K ± sM)", "setting": "[1]", "result": "36 ± 4"}]}, {"molecule": "Nc1ccccc1C(=O)NCCCCCC(=O)O", "note": "[pI marker 3]", "values": [{"measurement": "pI", "setting": "[2]", "result": 4.0}]}, {"molecule": "HGTVVLTALGGILK (listed as Equus caballus) [tryptic fragment of equine myoglobin]", "values": [{"measurement": "Ion abundance ratio (K ± sM)", "setting": "[1]", "result": "32 ± 5"}]}, {"molecule": "HGTVVLTALGGILKK (listed as Equus caballus) [tryptic fragment of equine myoglobin]", "values": [{"measurement": "Ion abundance ratio (K ± sM)", "setting": "[1]", "result": "51 ± 10"}]}, {"molecule": "O=C(NCCN1CCOCC1)c1cc2ccccc2c(Br)c1O", "note": "[pI marker 5]", "values": [{"measurement": "Pka1", "setting": "[2]", "result": 5.35}, {"measurement": "pI", "setting": "[2]", "result": 6.2}, {"measurement": "Pka", "setting": "[2]", "result": 6.95}]}, {"molecule": "KGHHEAELKPLAQSHATK (listed as Equus caballus) [tryptic fragment of equine myoglobin]", "values": [{"measurement": "Ion abundance ratio (K ± sM)", "setting": "[1]", "result": "310 ± 0.2"}]}, {"molecule": "YLEFISDAIIHVLHSK (listed as Equus caballus) [tryptic fragment of equine myoglobin]", "values": [{"measurement": "Ion abundance ratio (K ± sM)", "setting": "[1]", "result": 0.0}]}, {"molecule": "LFTGHPETLEK (listed as Equus caballus) [tryptic fragment of equine myoglobin]", "values": [{"measurement": "Ion abundance ratio (K ± sM)", "setting": "[1]", "result": "0.02 ± 0.02"}]}, {"molecule": "YKELGFQG (listed as Equus caballus) [tryptic fragment of equine myoglobin]", "values": [{"measurement": "Ion abundance ratio (K ± sM)", "setting": "[1]", "result": "0.01 ± 0.001"}]}, {"molecule": "IARRHPYFL (listed as Homo sapiens) [Kinetensin, human peptide purchased from American Peptide Company]", "values": [{"measurement": "Ion abundance ratio (K ± sM) pH 4.0", "setting": "[3]", "result": "337 ± 79"}, {"measurement": "Ion abundance ratio (K ± sM) pH 7.1", "setting": "[3]", "result": "882 ± 212"}, {"measurement": "Ion abundance ratio (K ± sM) pH 9.0", "setting": "[3]", "result": "616 ± 198"}]}, {"molecule": "LFTGHPETLEKFDKFK (listed as Equus caballus) [tryptic fragment of equine myoglobin]", "values": [{"measurement": "Ion abundance ratio (K ± sM)", "setting": "[1]", "result": "41 ± 6"}]}, {"molecule": "NCCCN1CCN(CCCNC(=O)c2cc3ccccc3cc2O)CC1", "note": "[pI marker 8]", "values": [{"measurement": "Pka1", "setting": "[2]", "result": 8.05}, {"measurement": "pI", "setting": "[2]", "result": 9.0}, {"measurement": "Pka", "setting": "[2]", "result": 9.85}]}, {"molecule": "NDIAAKYKELGFQG (NDLAAKYKELGFQG; listed as Equus caballus) [tryptic fragment of equine myoglobin]", "values": [{"measurement": "Ion abundance ratio (K ± sM)", "setting": "[1]", "result": "1.4 ± 0.4"}, {"measurement": "Ion abundance ratio (K ± sM)", "setting": "[1]; listed as N140-G153", "result": 1.4}]}, {"molecule": "ALELFRNDIAAK [tryptic fragment of equine myoglobin]", "values": [{"measurement": "Ion abundance ratio (K ± sM)", "setting": "[1]", "result": "0.7 ± 0.1"}]}, {"molecule": "HPGDFGADAQGAMTK (listed as Equus caballus) [tryptic fragment of equine myoglobin]", "values": [{"measurement": "Ion abundance ratio (K ± sM)", "setting": "[1]", "result": "0.05 ± 0.004"}]}, {"molecule": "GHHEAELKPLAQSHATK (listed as Equus caballus) [tryptic fragment of equine myoglobin]", "values": [{"measurement": "Ion abundance ratio (K ± sM)", "setting": "[1]", "result": "425 ± 61"}]}, {"molecule": "NCCCCCCNCCCCCCNC(=O)c1cc2ccccc2cc1O", "note": "[pI marker 9]", "values": [{"measurement": "Pka1", "setting": "[2]", "result": 9.95}, {"measurement": "pI", "setting": "[2]", "result": 10.3}, {"measurement": "Pka", "setting": "[2]", "result": 10.65}]}, {"molecule": "KKGHHEAELKPLAQSHATK (listed as Equus caballus) [tryptic fragment of equine myoglobin]", "values": [{"measurement": "Ion abundance ratio (K ± sM)", "setting": "[1]", "result": "140 ± 12"}]}, {"molecule": "KHGTVVLTALGGILK (listed as Equus caballus) [tryptic fragment of equine myoglobin]", "values": [{"measurement": "Ion abundance ratio (K ± sM)", "setting": "[1]", "result": "51 ± 10"}]}, {"molecule": "S YSMEHFRWGKPV [ACTH Human]", "values": [{"measurement": "Ion abundance ratio (K ± sM) pH 4.0", "setting": "[3]", "result": "221 ± 37"}, {"measurement": "Ion abundance ratio (K ± sM) pH 7.1", "setting": "[3]", "result": "422 ± 87"}, {"measurement": "Ion abundance ratio (K ± sM) pH 9.0", "setting": "[3]", "result": "128 ± 41"}]}, {"molecule": "VEADIAGHGQEVLIR (listed as Equus caballus) [tryptic fragment of equine myoglobin]", "values": [{"measurement": "Ion abundance ratio (K ± sM)", "setting": "[1]", "result": "0.3 ± 0.04"}]}, {"molecule": "GLSDGEWQQVLNVWGK (listed as Equus caballus) [tryptic fragment of equine myoglobin]", "values": [{"measurement": "Ion abundance ratio (K ± sM)", "setting": "[1]", "result": "0.3 ± 0.1"}]}, {"molecule": "O=C(NCCN1CCOCC1)c1cc2ccccc2cc1O", "note": "[pI marker 6]", "values": [{"measurement": "Pka1", "setting": "[2]", "result": 6.20}, {"measurement": "pI", "setting": "[2]", "result": 7.2}, {"measurement": "Pka", "setting": "[2]", "result": 8.10}]}]}
